Experimental findings from the RNAGym collection of RNA variant scans (doi:10.7554/elife.90254) are described below.

Sequences and labels used below:
B1: LINE1-full (parent)
chain: UACGUAGGUGGUUUUCCCCUGAUAGUGCUAAGGGGGCCUGGAAGUUUGGACUGGGCAGAGCUCAACACAGCGUGGCAAAGUGGCUGUGGCUAGACUGCCUCUCUGGAUUCCUCGUCACUCAGCAGGGCAUCUCUGAGAGAAAUGCC

In this series the parent is B1. The series is described as follows: self-cleavage, relative activity (ratio to wild type); higher = more cleavage; in vitro, sequencing; the parent is a self-cleaving ribozyme.
Turning to UACGUAGGUGGUUUUCCCCUGAUAGUGCUAAGGGGGCCUGGAAGUUUGGACUGGGCAGAGCUCAACACAGCGUGGCAAAGUGGCUGUGGCUAGACUGCCUCACUGGAUUCCUCGUCACUCAGCAGGGCAUCUCUGGGAGAAAUGCC, the self-cleavage amounted to 1.78. The same measure for UACGUAGGUGGUUUUCCCCUGAUAGUGCUAAGGGGGCCUGGAAGUUUGGACUGGGCAGAGCUCAACACAGCGUGGCAAAGUGGCUGUGGCUAGACUGCCUUCCUGGAUUCCUCGUCACUCAGCAGGGCAUCUCUGAGAGAAAUGCC: 1.49; for UACGUAGGUGGUUUUCCCCUGAUAGUGCUAAGGGGGCCUGGAAGUUUGGACUGGGCAGAGCUCAACACAGCGUGGCAAAGUGGCUGUGGCUAGACUGCCUCACUGGAUUCCUCGUCACUCAGCAGGGCAUCUCUGAGAGAAAUGCC: 1.21; for UACGUAGGUGGUUUUCCCCUGAUAGUGCUAAGGGGGCCUGGAAGUUUGGACUGGGCAGAGCUCAACACAGCGUGGCAAAGUGGCUGUGGCUAGACUGCCUUUCUGGAUUCCUCGUCACUCAGCAGAGCAUCUCUGAGAGAAAUGCC: 1.54. The figure for UACGUAGGUGGUUUUCCCCUGAUAGUGCUAAGGGGGCCUGGAAGUUUGGACUGGGCAGAGCUCAACACAGCGUGGCAAAGUGGCUGUGGCUAGACUGCCUUUCUGGAUUCCUCGUCACUCAGCAGGGCAUCUCUGAGAGAGAUGCC is 2; for UACGUAGGUGGUUUUCCCCUGAUAGUGCUAAGGGGGCCUGGAAGUUUGGACUGGGCAGAGCUCAACACAGCGUGGCAAAGUGGCUGUGGCUAGACUGCCUCACUGGUUUCCUCGUCACUCAGCAGGGCAUCUCUGAGAGAAAUGCC it is 1.66; for UACGUAGGUGGUUUUCCCCUGAUAGUGCUAAGGGGGCCUGGAAGUUUGGACUGGGCAGAGCUCAACACAGCGUGGCAAAGUGGCUGUGGCUAGACUGCCUCACUGGGUUCCUCGUCACUCAGCAGGGCAUCUCUGAGAGAAAUGCC it is 1.06. The same measure for UACGUAGGUGGUUUUCCCCUGAUAGUGCUAAGGGGGCCUGGAAGUUUGGACUGGGCAGAGCUCAACACAGCGUGGCAAAGUGGCUGUGGCUAGACUGCCUUUCUGGAUUCCUCGCCACUCAGCAGGGCAUCUCUGAGAGAAAUGCC: 1.49; for UACGUAGGUGGUUUUCCCCUGAUAGUGCUAAGGGGGCCUGGAAGUUUGGACUGGGCAGAGCUCAACACAGCGUGGCAAAGUGGCUGUGGCUAGACUGCCUCACUGGAUUCCUCGUCACUCAGCAGGGCAUCUCUGAGAGAGAUGCC: 1.42.

UACGUAGGUGGUUUUCCCCUGAUAGUGCUAAGGGGGCCUGGAAGUUUGGACUGGGCAGAGCUCAACACAGCGUGGCAAAGUGGCUGUGGCUAGACUGCCUUUCUGGAUUCCUCGUCACUCAGCAGGGCAUCUCCGAGAGAAAUGCC: the self-cleavage was determined as 1.45.

Take UACGUAGGUGGUUUUCCCCUGAUAGUGCUAAGGGGGCCUGGAAGUUUGGACUGGGCAGAGCUCAACACAGCGUGGCAAAGUGGCUGUGGCUAGACUGCCUUUCUGGAUUCCUCGUCACCCAGCAGGGCAUCUCUGAGAGAAAUGCC: the self-cleavage turned out to be 1.65.

Regarding UACGUAGGUGGUUUUCCCCUGAUAGUGCUAAGGGGGCCUGGAAGUUUGGACUGGGCAGAGCUCAACACAGCGUGGCAAAGUGGCUGUGGCUAGACUGCCUCACUGGAUUCCUCGUCACUCAGCAGGGCAUCUCUGAGAGGAAUGCC, the self-cleavage is 1.62. The same measure for UACGUAGGUGGUUUUCCCCUGAUAGUGCUAAGGGGGCCUGGAAGUUUGGACUGGGCAGAGCUCAACACAGCGUGGCAAAGUGGCUGUGGCUAGACUGCCUCACUGGAUUCCUCGUCACUCAGCAGGGCAUCUCUGAGAGUAAUGCC: 1.42; for UACGUAGGUGGUUUUCCCCUGAUAGUGCUAAGGGGGCCUGGAAGUUUGGACUGGGCAGAGCUCAACACAGCGUGGCAAAGUGGCUGUGGCUAGACUGCCUCACUGGAUUCCUAGUCACUCAGCAGGGCAUCUCUGAGAGAAAUGCC: 0.97; for UACGUAGGUGGUUUUCCCCUGAUAGUGCUAAGGGGGCCUGGAAGUUUGGACUGGGCAGAGCUCAACACAGCGUGGCAAAGUGGCUGUGGCUAGACUGCCUCACUGGAUUCCUCGUCACUCAGCAGGGCAUCUCUGAGAGAAUUGCC: 1.5. The same measure for UACGUAGGUGGUUUUCCCCUGAUAGUGCUAAGGGGGCCUGGAAGUUUGGACUGGGCAGAGCUCAACACAGCGUGGCAAAGUGGCUGUGGCUAGACUGCCUCACUGGAUUCCUCGUCACUCAGCCGGGCAUCUCUGAGAGAAAUGCC: 1.98; for UACGUAGGUGGUUUUCCCCUGAUAGUGCUAAGGGGGCCUGGAAGUUUGGACUGGGCAGAGCUCAACACAGCGUGGCAAAGUGGCUGUGGCUAGACUGCCUCACUGGAUUCCUCGUCACUCAGCUGGGCAUCUCUGAGAGAAAUGCC: 1.46; for UACGUAGGUGGUUUUCCCCUGAUAGUGCUAAGGGGGCCUGGAAGUUUGGACUGGGCAGAGCUCAACACAGCGUGGCAAAGUGGCUGUGGCUAGACUGCCUCACUGGAUUCCUCGUCACUCAGCAGGGCAUCUCUGAGGGAAAUGCC: 1.62. With UACGUAGGUGGUUUUCCCCUGAUAGUGCUAAGGGGGCCUGGAAGUUUGGACUGGGCAGAGCUCAACACAGCGUGGCAAAGUGGCUGUGGCUAGACUGCCUCACUGGAUUCCUCGUCACUCGGCAGGGCAUCUCUGAGAGAAAUGCC, the self-cleavage stood at 1.64.

As to UACGUAGGUGGUUUUCCCCUGAUAGUGCUAAGGGGGCCUGGAAGUUUGGACUGGGCAGAGCUCAACACAGCGUGGCAAAGUGGCUGUGGCUAGACUGCCUCACUGGAUUCCUCGUUACUCAGCAGGGCAUCUCUGAGAGAAAUGCC, the self-cleavage amounted to 0.97.
